Experimental data reported in paper PMC11585782, “The Plastidial Protein Acetyltransferase GNAT1 Forms a Complex With GNAT2, yet Their Interaction Is Dispensable for State Transitions” (Molecular & Cellular Proteomics : MCP, 2024).

Key:
[1] = biological target: His6-GNAT2 (Arabidopsis thaliana) (UniProt Q7X9V3)
[2] = biological target: His6-GNAT2 (Arabidopsis thaliana) (UniProt Q7X9V3); remark: listed apart in the source
[3] = substrate: CC(=O)SCCNC(=O)CCNC(=O)[C@H](O)C(C)(C)COP(=O)(O)OP(=O)(O)OC[C@H]1O[C@@H](n2cnc3c(N)ncnc32)[C@H](O)[C@@H]1OP(=O)(O)O; assay: purified protein; type: biochemical, Arabidopsis thaliana; details: acetyl-CoA 0-500 µM, 150 mM K-phosphate pH 8.0, 50 mM NaCl, 30 °C
[4] = co-substrate Nα-Ala peptide A-A-Q-G-A-K(ac)-A-A-K(Dnp)-Ahx-r-r-r 100 µM
[5] = co-substrate Nα-Val peptide V-A-Q-G-A-K(ac)-A-A-K(Dnp)-Ahx-r-r-r 100 µM

B1: His6-GNAT1 (enzyme)
chain: AAMQRKPPSYSISDEDLESRGFLLRRTTEGLNLDQLNSVFAAVGFPRRDTAKIEVALQHTDALLWVEYEKTRRPVAFARATGDGVFNAIIWDVVVDPSFQSCGLGKAVMERLIEDLQVKGICNIALYSEPRVLGFYRPLGFVSDPDGIKGMVFIRKQRNKK
acetylation of the Nα-Met peptide by His6-GNAT1 + His6-GNAT2 (1 + 1 μM), effective activity as percent of the hypothetical sum of the single activities [1]: 55%
acetylation of the Nα-Thr peptide by His6-GNAT1 + His6-GNAT2 (1 + 1 μM), effective activity as percent of the hypothetical sum of the single activities [1]: 73%
acetylation of the Nα-Val peptide by His6-GNAT1 + His6-GNAT2 (1 + 1 μM), effective activity as percent of the hypothetical sum of the single activities [1]: 76%
acetylation rate of the Nα-Ala peptide by His6-GNAT1 + His6-GNAT2 (1 + 1 μM), against around 450 nmol ∙ min^-1 expected for additive activity [1]: 250 nmol/min
lysine acetylation of the Nε-Lys peptide by His6-GNAT1 + His6-GNAT2 (1 + 1 μM), effective activity as percent of the hypothetical sum of the single activities [1]: 93%
acetylation of the Nα-Ala peptide in the presence of both GNATs, turnover as percent of the hypothetical sum of both individual activities [2]: 53%

B2: His6-GNAT1 (Arabidopsis thaliana) (protein)
chain: B1 chain
notes: N-terminal His6 (pQE-30), predicted plastid transit peptide (36 N-terminal residues) removed; expressed in E. coli SoluBL21, Ni-NTA
Km [3, 4]: 137.6 ± 9.8 µM
kcat [3, 4]: 0.00858 ± 0.00025 s⁻¹

B3: His6-GNAT2 (Arabidopsis thaliana) (protein)
chain: SGFVKNNNSTQLVEPPSIVNDEEEETEPLLPVEFTLVERNLEDGLVEEIIFSSGGEIDVYDLQGLCDKVGWPRRPLVKLAAALKNSYMVATLHSVMKSSSDSDSSEGGDGEKQQEKKLIGMARATSDHAFNATIWDVLVDPEYQGQGLGKALVEKLVRALLQRDIGNISLFADSQVVDFYQNLGFEADPEGIKGMFWYPK
notes: expressed in E. coli, purified
Km [3, 5]: 23.44 ± 0.32 µM
kcat [3, 5]: 0.02335 ± 5e-05 s⁻¹
